Publication PMC12717012, “Hierarchical interactions between nucleolar and heterochromatin condensates are mediated by a dual-affinity protein” (Nature Cell Biology, 2025)

Target: T1, His-tagged recombinant Pit, wild type (Pit^WT) (Drosophila melanogaster, UniProt Q9VD51 1-680)
T1 construct: also called His-tagged Pit; pBH4-Pit; source: E. coli BL21, purified (Ni-NTA, size-exclusion chromatography on Superdex 200); not shown: 6×His, N-terminal, kept
Test: pull-down; His-tagged Pit (5 µM) as bait with purified HP1a as prey (5 µM; titrated from 50 to 5 µM); 20 mM sodium phosphate, 50 mM NaCl, 10 mM imidazole, 4 °C; captured on Ni-NTA magnetic beads; western blot; background control beads + HP1a only
Conditions: both partners purified

T1 sequence (Q9VD51 whole entry): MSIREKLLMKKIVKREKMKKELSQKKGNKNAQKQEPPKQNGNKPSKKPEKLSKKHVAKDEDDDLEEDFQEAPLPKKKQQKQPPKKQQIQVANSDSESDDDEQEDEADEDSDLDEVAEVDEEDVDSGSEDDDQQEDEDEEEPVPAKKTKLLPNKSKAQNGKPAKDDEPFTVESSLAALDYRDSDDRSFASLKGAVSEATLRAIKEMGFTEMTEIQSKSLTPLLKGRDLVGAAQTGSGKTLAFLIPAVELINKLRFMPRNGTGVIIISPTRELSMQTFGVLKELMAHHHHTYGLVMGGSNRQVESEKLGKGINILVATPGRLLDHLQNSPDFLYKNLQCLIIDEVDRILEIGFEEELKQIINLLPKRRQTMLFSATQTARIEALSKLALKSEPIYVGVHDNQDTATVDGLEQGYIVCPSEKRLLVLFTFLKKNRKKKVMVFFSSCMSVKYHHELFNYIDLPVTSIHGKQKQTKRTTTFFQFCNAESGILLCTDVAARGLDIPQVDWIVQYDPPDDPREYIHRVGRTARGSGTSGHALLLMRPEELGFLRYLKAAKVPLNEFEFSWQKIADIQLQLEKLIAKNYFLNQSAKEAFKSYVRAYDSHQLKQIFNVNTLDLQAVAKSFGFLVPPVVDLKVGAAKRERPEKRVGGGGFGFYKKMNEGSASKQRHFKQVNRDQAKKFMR

B1: purified HP1a, wild type (HP1a^WT) (natural protein, Drosophila melanogaster, UniProt P05205 1-206, looked up)
chain: MGKKIDNPESSAKVSDAEEEEEEYAVEKIIDRRVRKGKVEYYLKWKGYPETENTWEPENNLDCQDLIQQYEASRKDEEKSAASKKDRPSSSAKAKETQGRASSSTSTASKRKSEEPTAPSGNKSKRTTDAEQDTIPVSGSTGFDRGLEAEKILGASDNNGRLTFLIQFKGVDQAEMVPSSVANEKIPRMVIHFYEERLSWYSDNED
notes: HP1a, Drosophila melanogaster; It speaks of HP1a dimers, but no dimerisation experiment is done here
binding result: binds
